17 molecules from publication PMC6995573, “Critical Factors in Human Antizymes that Determine the Differential Binding, Inhibition, and Degradation of Human Ornithine Decarboxylase” (Biomolecules, 2019) can be followed below.

Where two headings read alike, the source gives them in different places.

Assay [1] deals with T1, Human ornithine decarboxylase (human, UniProt P11926 2-421).
T1 construct: ornithine decarboxylase (ODC), human; Homodimer when alone; also called ODC
T1 sequence: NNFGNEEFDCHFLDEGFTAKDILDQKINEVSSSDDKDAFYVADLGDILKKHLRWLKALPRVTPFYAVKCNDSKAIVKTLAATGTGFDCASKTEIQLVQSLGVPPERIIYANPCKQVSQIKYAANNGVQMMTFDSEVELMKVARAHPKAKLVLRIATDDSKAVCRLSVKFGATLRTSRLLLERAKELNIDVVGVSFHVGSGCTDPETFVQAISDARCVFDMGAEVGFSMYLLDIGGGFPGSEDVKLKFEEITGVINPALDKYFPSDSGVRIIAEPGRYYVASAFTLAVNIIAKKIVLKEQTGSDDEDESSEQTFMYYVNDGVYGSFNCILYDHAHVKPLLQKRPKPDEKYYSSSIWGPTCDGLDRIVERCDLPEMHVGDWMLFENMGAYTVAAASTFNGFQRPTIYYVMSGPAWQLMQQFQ
The experiment in a line: AUC; sedimentation velocity, 20 °C, 30 mM Tris-HCl pH 7.4, 25 mM NaCl; ODC fixed at 0.3 mg/mL, AZ 0.02-0.19 mg/mL (AZ/ODC molar ratio 0.25 to 3); all data sets fitted to the AB hetero-association model in SEDPHAT. The conditions noted are these: both partners purified.

The target of assay [2] is T1, Human ornithine decarboxylase. The experiment in a line: cell-based or functional assay.
Assay [3] has the same target. The experiment in a line: AUC; sedimentation velocity, 20 °C, 30 mM Tris-HCl pH 7.4, 25 mM NaCl; ODC fixed at 0.3 mg/mL, AZ 0.02-0.19 mg/mL (AZ/ODC molar ratio 0.25 to 3); all data sets fitted to the AB hetero-association model in SEDPHAT. The conditions noted are these: both partners purified. The source holds these as a separate data set.
The target is the same in assay [4]. The experiment in a line: cell-based or functional assay. This is another data set of the same source.
Assay [5] has the same target. The experiment in a line: cell-based or functional assay. The source holds these as a separate data set.

B1: AZ1_D124S/E150Q/Q166K/N179D (natural protein)
chain: not shown
notes: antizyme 1 (AZ1), human; also called AZ1_4M
What is called Kd is the free concentration of one partner at which half of the binding sites on the other are occupied at equilibrium, for simple one-to-one binding. For the molecule B1, in assay [1], the dissociation constant Kd came to 950 ± 30 nM. In assay [2], the “IC50 of inhibition of ODC enzyme activity by AZ” value (from here on “IC50 of inhibition … by AZ”) was 550 nM.

B2: AZ1_WT (natural protein)
chain: not shown
notes: antizyme 1 (AZ1), human; also called antizyme 1
For B2, the dissociation constant (Kd) in assay [1] was determined as 220 ± 10 nM. In addition, the “IC50 of inhibition … by AZ” value in assay [2] came out at 230 nM.

B3: AZ1_D124S/E150Q/Q166K/H171S/N179D (natural protein)
chain: not shown
notes: antizyme 1 (AZ1), human; also called AZ1_5M; AZ1_D124S/E150Q/Q166K/N179D/H171S
B3: the Kd in assay [1] was determined as 1780 ± 20 nM. The “IC50 of inhibition … by AZ” value in assay [2] is 490 nM.

B4: AZ_(95–228) (domain or fragment)
chain: not shown
notes: also called C-terminal domain of AZ1
For the molecule B4, the equilibrium dissociation constant (Kd) in assay [3] was determined as 1150 ± 10 nM. Moreover, the “IC50 of inhibition … by AZ” value in assay [4] came to 160 nM.

B5: AZ_(95–228)_K153A/E164A/E165A (domain or fragment)
chain: not shown
Turning to B5, the equilibrium dissociation constant (Kd) in assay [3] was 6580 ± 20 nM. Further, the “IC50 of inhibition … by AZ” value in assay [4] worked out at 4130 nM.

B6: AZ_(95–228)_K153A (domain or fragment)
chain: not shown
Turning to B6, the Kd in assay [3] is 1210 ± 10 nM. For the same molecule, the “IC50 of inhibition … by AZ” value in assay [4] was 400 nM.

B7: AZ_(95–228)_E161A (domain or fragment)
chain: not shown
For B7, the Kd in assay [3] amounted to 1110 ± 10 nM. The “IC50 of inhibition … by AZ” value in assay [4] amounted to 250 nM.

B8: AZ_(95–228)_E142A/H171A/K178A (domain or fragment)
chain: not shown
notes: also called non-α1 mutant
As to B8, the dissociation constant Kd in assay [3] came to 11500 ± 600 nM.

B9: AZ_(95–228)_E165A (domain or fragment)
chain: not shown
As for B9, the Kd in assay [3] amounted to 1730 ± 20 nM. The “IC50 of inhibition … by AZ” value in assay [4] is 300 nM.

B10: AZ_(95–228)_K178A (domain or fragment)
chain: not shown
Consider B10, for which, in assay [3], the Kd amounted to 3030 ± 20 nM. Moreover, in assay [4], the “IC50 of inhibition … by AZ” value is 310 nM.

B11: AZ_(95–228)_K153A/D154A/E161A/E164A/E165A (domain or fragment)
chain: not shown
With B11, the Kd in assay [3] worked out at 6810 ± 60 nM.

B12: AZ_(95–228)_H171A (domain or fragment)
chain: not shown
As to B12, the Kd in assay [3] was 2030 ± 20 nM. The “IC50 of inhibition … by AZ” value in assay [4] stood at 270 nM.

B13: AZ_(95–228)_E142A/K153A/D154A/E161A/E164A/E165A/H171A/K178A (domain or fragment)
chain: not shown
notes: also called hybrid octuple mutant
For B13, in assay [3], the Kd was 12400 ± 700 nM.

B14: AZ_(95–228)_D154A (domain or fragment)
chain: not shown
Take B14: in assay [3], the Kd came to 1700 ± 20 nM. In assay [4], the “IC50 of inhibition … by AZ” value is 270 nM.

B15: AZ_(95–228)_E142A (domain or fragment)
chain: not shown
As to B15, the dissociation constant Kd in assay [3] was determined as 2200 ± 20 nM. For the same molecule, in assay [4], the “IC50 of inhibition … by AZ” value amounted to 310 nM.

B16: AZ_(95–228)_E164A (domain or fragment)
chain: not shown
Consider B16, for which the equilibrium dissociation constant (Kd) in assay [3] was determined as 1680 ± 10 nM. In addition, the “IC50 of inhibition … by AZ” value in assay [4] was determined as 300 nM.

B17: AZ3_WT (natural protein, human, UniProt Q9UMX2 1-235, looked up)
chain: MPCKRCRPSVYSLSYIKRGKTRNYLYPIWSPYAYYLYCYKYRITLREKMLPRCYKSITYKEEEDLTLQPRSCLQCSESLVGLQEGKSTEQGNHDQLKELYSAGNLTVLATDPLLHQDPVQLDFHFRLTSQTSAHWHGLLCDRRLFLDIPYQALDQGNRESLTATLEYVEEKTNVDSVFVNFQNDRNDRGALLRAFSYMGFEVVRPDHPALPPLDNVIFMVYPLERDVGHLPSEPP
notes: antizyme 3 (AZ3), human; also called antizyme 3
Turning to B17, the Kd in assay [1] worked out at 1520 ± 10 nM. The “IC50 of inhibition … by AZ” value in assay [5] turned out to be 610 nM.
